Results from the Human Domainome abundance scans (Beltran et al. 2025).
± gives the uncertainty stated by the source.

B1: COUP transcription factor 1, residues 83 to 159; numbered along this chain, P10589 (parent)
chain: HIECVVCGDKSSGKHYGQFTCEGCKSFFKRSVRRNLTYTCRANRNCPIDQHHRNQCQYCRLKKCLKVGMRREAVQRG
B2: Double-stranded RNA-specific adenosine deaminase, residues 296 to 358; numbered along this chain, P55265 (parent)
chain: MAEIKEKICDYLFNVSDSSALNLAKNIGLTKARDINAVLIDMERQGDVYRQGTTPPIWHLTDK

Variants of: B1
Test: abundance fitness (aPCA) (normalised: wild type 0, dead -1); higher = more abundant; growth selection in yeast, the domain comes from the species named
Settings: Homo sapiens

Row | Variant | abundance fitness
1 | HIECVVCGDKSSGKHYGQFTCEGCKSFFKRSVRRNLTYTCRANRNCPIDQHHRNQCQHCRLKKCLKVGMRREAVQRG | 0.051 ± 0.069
2 | HIECVVCGDKSSGKHYGQFTCEGCKSFFKRSVRRNLTYTCRANRNCPIDQHHRNQCQKCRLKKCLKVGMRREAVQRG | -0.366 ± 0.066
3 | HIECVVCGDKSSGKHYGQFTCEGCKSFFKRSVRRNLTDTCRANRNCPIDQHHRNQCQYCRLKKCLKVGMRREAVQRG | -0.509 ± 0.32
4 | HIECVVCGDKSSGKHYGQFTCEGCKSFFKRSVRRNLTYMCRANRNCPIDQHHRNQCQYCRLKKCLKVGMRREAVQRG | -0.126 ± 0.18
5 | HIECVVCGDKSSGKHYGQFTCGGCKSFFKRSVRRNLTYTCRANRNCPIDQHHRNQCQYCRLKKCLKVGMRREAVQRG | 0.089 ± 0.047
6 | HIECVVCGDKSSGKHYGQFTCEGCESFFKRSVRRNLTYTCRANRNCPIDQHHRNQCQYCRLKKCLKVGMRREAVQRG | 0.183 ± 0.047
7 | HIECVVCGDKSSGKHYGQFTCEGCKSFFKRSVRRNLTYTCRANRNCPIDQHHRNNCQYCRLKKCLKVGMRREAVQRG | -0.083 ± 0.075
8 | HIECVVCGDKSSGKHYGQFTCEGCKSFFKRSVRRNLTYTCRANRNCPIDQHHRNPCQYCRLKKCLKVGMRREAVQRG | -0.109 ± 0.058
9 | HIECVVCGDKSSGKHYGQFTCEGCKSFFKRSVRRNLTYTCRANRNCPIDQHHRNQCQYCRLKKCAKVGMRREAVQRG | -0.228 ± 0.044
10 | HIECVVCGDKSSGKHYGQFTCEGCKSFFKRSVRRNLTYTCRANRNCPIDQHHRNQCQYSRLKKCLKVGMRREAVQRG | -0.853 ± 0.1
11 | HIECVVCGDKSSGKHYGQFTCEGCKSFFKRSYRRNLTYTCRANRNCPIDQHHRNQCQYCRLKKCLKVGMRREAVQRG | -0.062 ± 0.17
12 | HIECVVCGDHSSGKHYGQFTCEGCKSFFKRSVRRNLTYTCRANRNCPIDQHHRNQCQYCRLKKCLKVGMRREAVQRG | -0.288 ± 0.21
13 | HIECVICGDKSSGKHYGQFTCEGCKSFFKRSVRRNLTYTCRANRNCPIDQHHRNQCQYCRLKKCLKVGMRREAVQRG | -0.074 ± 0.11
14 | HIECVVCGDKSSGKHYGQFTCEGCKSFFKRSVRRNLTYTCRANRNCPIDQHHRNQCQYCRLKKCLKVGMRREAVQVG | -0.009 ± 0.045
15 | HIECVVCGDKSSGKHYGQFTCEGCKSFFKRSVRRNLTYTCRANRNCPIDQHHREQCQYCRLKKCLKVGMRREAVQRG | 0.075 ± 0.053
16 | HIECVVCGDKSSGKHTGQFTCEGCKSFFKRSVRRNLTYTCRANRNCPIDQHHRNQCQYCRLKKCLKVGMRREAVQRG | -0.274 ± 0.11
17 | HIECVVCGSKSSGKHYGQFTCEGCKSFFKRSVRRNLTYTCRANRNCPIDQHHRNQCQYCRLKKCLKVGMRREAVQRG | -0.02 ± 0.075
18 | HIECVVCGDKSSGKHYTQFTCEGCKSFFKRSVRRNLTYTCRANRNCPIDQHHRNQCQYCRLKKCLKVGMRREAVQRG | -0.319 ± 0.16
19 | HIECVVCGDKSSGKHYAQFTCEGCKSFFKRSVRRNLTYTCRANRNCPIDQHHRNQCQYCRLKKCLKVGMRREAVQRG | -0.358 ± 0.071
20 | HIECVVCGDKSSGKHYGQFTCEGCKSFFKRSVRRNLTYTCRANRNCPIDQHHRNQCQYCTLKKCLKVGMRREAVQRG | -0.007 ± 0.046
21 | HIECVVCGDKSSGKHYGQFTCEGCKSFFKRSVRSNLTYTCRANRNCPIDQHHRNQCQYCRLKKCLKVGMRREAVQRG | -0.193 ± 0.098
22 | HIECVVCGDKSSGKHYGQFTCEGCKSFFKRSVRRNLTYTCRANANCPIDQHHRNQCQYCRLKKCLKVGMRREAVQRG | 0.077 ± 0.036
23 | HIECVVCGDKSSGKHYGQFTCEGCKSFFKRSVRRNLTYTCRANRNCPIDQHHRNQCQYCRLKKCLGVGMRREAVQRG | -0.09 ± 0.034

Variants of: B2
Test: as above
Settings: Homo sapiens

Row | Variant | abundance fitness
24 | MAEIKEKICDYLFNVSDSSALNLAKNIGLTKARDINAVLIDMERQGDVYRQDTTPPIWHLTDK | -0.105 ± 0.054
25 | MAEIKEKICDYLFNVSDSSALNLAKNIGLTKARDINAVLIDMERQGDVYRQGTTPPHWHLTDK | -0.185 ± 0.11
26 | MAEIKEKICDYLFNVSDSSSLNLAKNIGLTKARDINAVLIDMERQGDVYRQGTTPPIWHLTDK | -0.228 ± 0.052
27 | MAEIKEKICDYLFNVSDSSTLNLAKNIGLTKARDINAVLIDMERQGDVYRQGTTPPIWHLTDK | -0.295 ± 0.065
28 | MAEIKEKICDYLFNVSDSSALNLAKNIGLTKARDINAVLIDMERQWDVYRQGTTPPIWHLTDK | -1.15 ± 0.18
29 | MAEIKEKICDYLFNVSDSSALNLAKNIGLTKARDINAVLIDMERQIDVYRQGTTPPIWHLTDK | -1.03 ± 0.21
30 | MAEIKEKICDYLFNVSDSSALNLAKNIGLTKARDINAVLIDMERQGDVYRQGTTPPIWHLPDK | -0.411 ± 0.073
31 | MAEIKEKICDYLENVSDSSALNLAKNIGLTKARDINAVLIDMERQGDVYRQGTTPPIWHLTDK | 0.383 ± 0.078
32 | MAEIKEKICDYLFNVSDSSALNLAKNIGLTKARDINAVLIDFERQGDVYRQGTTPPIWHLTDK | -0.965 ± 0.14
33 | MAEIKEKICDYLFNVSDSSALHLAKNIGLTKARDINAVLIDMERQGDVYRQGTTPPIWHLTDK | -0.117 ± 0.17
34 | MAEIKEKICDYLFNVSDSSALKLAKNIGLTKARDINAVLIDMERQGDVYRQGTTPPIWHLTDK | -0.424 ± 0.084
35 | MAEIKEMICDYLFNVSDSSALNLAKNIGLTKARDINAVLIDMERQGDVYRQGTTPPIWHLTDK | -0.055 ± 0.15
36 | MAEIKEFICDYLFNVSDSSALNLAKNIGLTKARDINAVLIDMERQGDVYRQGTTPPIWHLTDK | -0.543 ± 0.088
37 | MAEIKEKICDYLFNVSDSSALNLAKNIGLTKARDINAVLIDMERQGDVYRQGTTPWIWHLTDK | -0.818 ± 0.24
38 | MAEIKEKICDYLFNVSDSSALNLAKNIGLTKARDINAVLIDMERQGDVYRQGTTPFIWHLTDK | -1.13 ± 0.29
39 | MAEIKEKICDYLFNVSDSSALNLAKNIILTKARDINAVLIDMERQGDVYRQGTTPPIWHLTDK | -1.01 ± 0.15
40 | MAEIKEKICDYLFNVSDSSALNLAKNIGLTKARDINAVLIDMDRQGDVYRQGTTPPIWHLTDK | -0.665 ± 0.084
